The test addresses human IgE with the M1′ sequence (long form of membrane IgE) expressed on transduced BJAB or Daudi cells (human), P01854. The experiment in a line: cell-based or functional assay.

human IgE with the M1′ sequence (long form of membrane IgE) expressed on transduced BJAB or Daudi cells (human), P01854, sequence (P01854 116-546 I515L limits assumed): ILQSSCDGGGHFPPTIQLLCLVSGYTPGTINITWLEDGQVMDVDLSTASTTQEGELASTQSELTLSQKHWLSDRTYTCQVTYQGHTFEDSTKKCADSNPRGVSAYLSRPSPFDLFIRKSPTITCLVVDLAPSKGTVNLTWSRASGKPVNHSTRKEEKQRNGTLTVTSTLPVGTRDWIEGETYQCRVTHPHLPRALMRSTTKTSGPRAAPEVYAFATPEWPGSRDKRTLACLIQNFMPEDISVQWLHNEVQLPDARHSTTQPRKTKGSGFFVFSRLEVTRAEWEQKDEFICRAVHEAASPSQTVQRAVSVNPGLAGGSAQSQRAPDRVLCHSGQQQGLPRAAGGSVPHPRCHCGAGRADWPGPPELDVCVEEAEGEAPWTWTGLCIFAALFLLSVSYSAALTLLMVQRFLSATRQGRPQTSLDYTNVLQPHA

B1: murine anti-IgE/M1′ antibody 47H4 (antibody)
heavy: EVKLVESGGGLVQPGGSRKLSCAASGFTFSDYGMAWVRQAPGKGPEWVAFISDLAYTIYYADTVTGRFTISRENAKNTLYLEMSSLRSEDTALYYCARDNWDAMDYWGQGTSVTVSSAKTTPPSSVYPLAPGSAAQTNSMVTLGCLVKGYFPEPVTVTWNSGSLSSGVHTFPAVLQSDLYTLSSSVTVPSSTWPSETVTCNVAHPASSTKVDKKIVPRDCGCKPCICTVPEVSSVFIFPPKPKDVLTITLTPKVTCVVVDISKDDPEVQFSWFVDDVEVHTAQTQPREEQFNSTFRSVSELPIMHQDWLNGKEFKCRVNSAAFPAPIEKTISKTKGRPKAPQVYTIPPPKEQMAKDKVSLTCMITDFFPEDITVEWQWNGQPAENYKNTQPIMDTDGSYFVYSKLNVQKSNWEAGNTFTCSVLHEGLHNHHTEKSLSHSPGK
light: DIVLTQTPLSLPVSLGDQASISCRSSQSLVHNNGNTYLHWYLQKPGQSPKLLIYKVSNRFSGVPDRFSGSGSGTDFTLKISRLEAEDLGVYFCSQNTLVPWTFGGGTKVEIKRADAAPTVSIFPPSSEQLTSGGASVVCFLNNFYPKDINVKWKIDGSERQNGVLNSWTDQDSKDSTYSMSSTLTLTKDEYERHNSYTCEATHKTSTSPIVKSFNRNEC
B1: the apoptosis of Daudi-IgE/Long cells (Annexin V/PI, 72 h), no crosslinker; concentration at which seen is > 10 µg/mL.

B2: murine anti-IgE/M1′ antibody 26A11 (antibody)
heavy: EVQLQQSGPELVKPGASVKMSCKASGYTFTDYYMMWVKQSHGKSLEWIGDINPNNYDTSYNQKFKGKATLTVDKSSSTAYIQLNSLTSEDSAVYYCASKAYWGQGTLVTVSAASTTPPSVYPLAPGSAAQTNSMVTLGCLVKGYFPEPVTVTWNSGSLSSGVHTFPAVLQSDLYTLSSSVTVPSSTWPSETVTCNVAHPASSTKVDKKIVPRDCGCKPCICTVPEVSSVFIFPPKPKDVLTITLTPKVTCVVVDISKDDPEVQFSWFVDDVEVHTAQTQPREEQFNSTFRSVSELPIMHQDWLNGKEFKCRVNSAAFPAPIEKTISKTKGRPKAPQVYTIPPPKEQMAKDKVSLTCMITDFFPEDITVEWQWNGQPAENYKNTQPIMDTDGSYFVYSKLNVQKSNWEAGNTFTCSVLHEGLHNHHTEKSLSHSPGK
light: DIQMTQTTSSLSASLGDRVTITCRSSQDISNSLNWYQQKPDGPVKLLIYSTSRLHSGVPSRFSGSGSGTDYSLTISNLEQEDLATYFCQQGHTLPWTFGGGTKVEIKRADAAPTVSIFPPSSEQLTSGGASVVCFLNNFYPKDINVKWKIDGSERQNGVLNSWTDQDSKDSTYSMSSTLTLTKDEYERHNSYTCEATHKTSTSPIVKSFNRNEC
Take B2: the apoptosis of Daudi-IgE/Long cells, no crosslinker; concentration at which seen is > 0.1 µg/mL and the percent apoptosis of Daudi-IgE/Long cells, no crosslinker lay within 30 to 50%.

B3: afucosylated humanized anti-IgE/M1′ antibody 47H4 v5 (antibody, V domains shown)
VH: EVQLVESGGGLVQPGGSLRLSCAASGFTFSDYGIAWVRQAPGKGLEWVAFISDLAYTIYYADTVTGRFTISRDNSKNTLYLQMNSLRAEDTAVYYCARDNWDAMDYWGQGTLVTVSS
VL: DIQMTQSPSSLSASVGDRVTITCRSSQSLVHNNANTYLHWYQQKPGKAPKLLIYKVSNRFSGVPSRFSGSGSGTDFTLTISSLQPEDFATYYCSQNTLVPWTFGQGTKVEIKR
modifications: here or on the partner: afucosylated Fc carbohydrate (produced in BIOWA cell lines)
B3: the EC50 of ADCC: NK-cell lysis of BJAB cells overexpressing human IgE/M1′ (LDH release) was 0.83 nM.

B4: humanized anti-IgE/M1′ antibody 47H4.v5 (antibody, V domains shown)
VH: B3 VH
VL: B3 VL
Regarding B4, the EC50 of ADCC: NK-cell lysis of BJAB cells overexpressing human IgE/M1′ (LDH release) amounted to 6.6 nM.

B5: murine anti-IgE/M1′ antibody 7A6 (antibody)
heavy: QVQLQQSGAELVRPGASVTLSCKASGYTFIDYEMHWVKQTPVHGLEWIGAIDPETGTTAYNQKFKGKATLTAAKSSSTAYMELRSLTSEDSAVYYCTRLRPHYDYDNAMDSWGQGTTLTVSSASTKGPSVYPLAPGSAAQTNSMVTLGCLVKGYFPEPVTVTWNSGSLSSGVHTFPAVLQSDLYTLSSSVTVPSSTWPSETVTCNVAHPASSTKVDKKIVPRDCGCKPCICTVPEVSSVFIFPPKPKDVLTITLTPKVTCVVVDISKDDPEVQFSWFVDDVEVHTAQTQPREEQFNSTFRSVSELPIMHQDWLNGKEFKCRVNSAAFPAPIEKTISKTKGRPKAPQVYTIPPPKEQMAKDKVSLTCMITDFFPEDITVEWQWNGQPAENYKNTQPIMDTDGSYFVYSKLNVQKSNWEAGNTFTCSVLHEGLHNHHTEKSLSHSPGK
light: DIVMSQSPSSLTVSVGEKVTLSCKSSQTLLYSTNQKNYLAWYQQKPGQSPKLLIYWASTRESGVPDRFTGSGSGTDFTLTISSVKAEDLAVYYCQQYYSYPYTFGGGTKVEIKRADAAPTVSIFPPSSEQLTSGGASVVCFLNNFYPKDINVKWKIDGSERQNGVLNSWTDQDSKDSTYSMSSTLTLTKDEYERHNSYTCEATHKTSTSPIVKSFNRNEC
On to B5, for which the apoptosis of Daudi-IgE/Long cells (Annexin V/PI, 72 h), no crosslinker; concentration at which seen was > 10 µg/mL.

For the origin of these results see patent US20120149881A1.
